Experiment [1] deals with T1, human serum albumin (human, UniProt P02768 25-609).
T1 construct: also called HSA
The experiment is described as follows: SPR, HSA immobilised. How it is done: (§1) Recombinant protein A, HSA, MSA or target (either ED-B or Her2) was immobilized on a High Capacity Amine sensor chip (Bruker) after NHS/EDC activation with a Sierra SPR-32 system (Bruker). The chip was equilibrated with SPR running buffer (PBS 0.05%, Tween pH 7.3). Injection of ethanolamine after target immobilization was used to block free NHS groups. To determine the binding of fusion proteins to FAP, the Fc-tagged target was injected with 60 or 30 nM to Protein A coupled spots followed by the injection of fusion proteins.
(§2) Binding proteins were applied to the chip in serial dilutions with a flow rate of 30 μl/min. Upon binding, analyte accumulated on the surface increasing the refractive index. This change in the refractive index was measured in real time and plotted as response or resonance units versus time. The association was performed for 120 seconds and the dissociation for 180 seconds. After each run, the chip surface was regenerated with 30 μl regeneration buffer (10 mM glycine pH 2.0 or pH 1.5) and equilibrated with running buffer. Binding studies were carried out using the Sierra SPR-32 system (Bruker); data evaluation was operated via the Sierra Analyser software, provided by the manufacturer, by the use of the Langmuir 1:1 model (RI=0).
On the technique in general: In SPR one partner is held on a chip, and binding of the other changes the refractive index at the surface.

The next experiment concerns the target T2, mouse serum albumin (mouse, UniProt P07724 25-608).
T2 construct: also called MSA
Description: SPR, MSA immobilised. How it is done: as §1, §2

For a further experiment, the target named is T3, hFAP-Fc (human, UniProt Q12884 26-760, limits assumed).
T3 construct: also called Fc-tagged target (FAP)
T3 sequence (looked up): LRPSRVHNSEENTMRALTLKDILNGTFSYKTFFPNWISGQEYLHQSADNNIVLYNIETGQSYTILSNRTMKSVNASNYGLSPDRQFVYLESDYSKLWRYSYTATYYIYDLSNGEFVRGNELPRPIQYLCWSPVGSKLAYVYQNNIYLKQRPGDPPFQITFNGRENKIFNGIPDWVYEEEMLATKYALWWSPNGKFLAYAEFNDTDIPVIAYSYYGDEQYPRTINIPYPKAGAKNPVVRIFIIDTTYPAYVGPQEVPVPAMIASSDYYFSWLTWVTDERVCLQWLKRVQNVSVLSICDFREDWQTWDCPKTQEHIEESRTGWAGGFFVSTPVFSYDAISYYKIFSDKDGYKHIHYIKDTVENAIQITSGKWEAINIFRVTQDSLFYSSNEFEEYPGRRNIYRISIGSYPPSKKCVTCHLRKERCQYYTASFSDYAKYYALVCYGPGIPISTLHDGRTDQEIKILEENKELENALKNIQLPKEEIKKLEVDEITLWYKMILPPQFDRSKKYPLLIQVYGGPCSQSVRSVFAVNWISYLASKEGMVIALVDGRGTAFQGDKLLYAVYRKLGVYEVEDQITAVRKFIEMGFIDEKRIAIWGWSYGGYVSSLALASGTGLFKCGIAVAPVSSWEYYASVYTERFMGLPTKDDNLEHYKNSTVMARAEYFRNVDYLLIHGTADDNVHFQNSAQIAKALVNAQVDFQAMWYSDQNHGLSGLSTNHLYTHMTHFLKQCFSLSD
Description: SPR, Fc-tagged FAP captured on immobilised protein A, pH 7.3, 1:1 Langmuir fit. How it is done: as §1, §2

In experiment [2] the target is T1, human serum albumin. The experiment is described as follows: SPR, HSA immobilised on the chip, pH 7.3, 1:1 Langmuir fit. How it is done:
as §1, §2

Experiment [3] addresses T4, Her2-Fc (human, UniProt P04626 23-652).
T4 construct: Coated in ELISA
The experiment is described as follows: ELISA on coated Her2-Fc; 24 h in mouse serum at 37 C. How it is done: (§3) High binding plates (Greiner, 781061) were immobilized with 2.5 μg/ml hFAP-Fc or 1.2 μg/ml Her2-Fc over night at 4° C. Dilution series of 3 μM to 0.07 pM of fusion proteins with binding specifically to Her2 were incubated in 100% human serum or 100% mouse serum for 24 h at 37° C. Dilution series of 3 µM to 0.2 pM or 1 μM to 0.01 fM of fusion proteins with binding specifically to hFAP were incubated in 100% human serum or 100% mouse serum for 24 h at 37° C. ELISA-plates were washed three times with PBST (PBS+0.1% Tween) and blocked with 3% BSA/0.5% Tween/PBS up to 2 h at room temperature (rt). After preincubation for 0 h or 24 h in the presence of serum the dilution series were incubated on ELISA-plates for up to 1 h at rt. Wells were washed with PBST and incubated with biotinylated anti-ubiquitin-antibody (1:300) for up to 1 h at rt. The binding was visualized with Streptavidin-HRP (1:5.000).
(§4) The fusion proteins comprise the albumin binding domain (referred to as HED) and the targeting moiety.
Background: ELISA stands for enzyme-linked immunosorbent assay.

In experiment [4] the target is T4, Her2-Fc. The experiment is described as follows: ELISA on coated Her2-Fc; 24 h in human serum at 37 C. How it is done:
as §3, §4

For experiment [5], the target named is T5, Her2 expressed on Sk-Br-3 cells (human, UniProt P04626 23-1255).
T5 construct: whole, on cells; also called human epidermal growth factor receptor 2
The experiment is described as follows: flow cytometry, dilution series on Sk-Br-3 cells. How it is done:
Her2 expressing Sk-Br-3-cells and HEK293-hFAP overexpressing cells were thawed, washed with medium containing FCS, subsequently washed with FACS blocking buffer (PBS/0.1% Sodium Azide/3% FCS) and 100 μl seeded in 96-well round bottom plates with a density of 1×10⁶ cells/ml. Dilution series from 10 µM to 8.6 fM (CID 217781, CID 217787) and a dilution series of 3 µM to 0.2 μM (CID 218466, CID 218467, 218512, CID 218513, CID 218514, CID 218515, CID 218516) were incubated on Her2-expressing Sk-Br-3-cells and dilution series from 1 μM to 0.07 μM of fusion proteins 218690 and 218702 were incubated on hFAP-overexpressing HEK293-cell line for 45 min at 4° C. After centrifugation the supernatants were removed and cells were washed with FACS blocking buffer and 100 μl/well rabbit anti-Strep-Tag antibody (GenScript; A00626), 1:300 diluted in FACS blocking buffer were added. After removal of the primary antibody goat anti-rabbit IgG Alexa Fluor 488 antibody (Invitrogen; A4008) was applied in a 1:1000 dilution in FACS blocking buffer. Flow cytometry measurement was conducted on the Guava easyCyte 5HT device from Merck-Millipore at excitation wavelength 488 nm and emission wavelength 525/30 nm. The * in table 2 refers to a fusion protein with the albumin binding domain as dimer (homo-dimer) and/or the targeting moiety as dimer.
In general terms: Flow cytometry measures light scatter and fluorescence of single cells or particles in a stream.

In experiment [6] the target is T6, Her2 (immobilised on the SPR chip) (human, UniProt P04626 23-652, limits assumed).
T6 construct: construct not described; also called human epidermal growth factor receptor 2
Description: SPR, Her2 immobilised on the chip, pH 7.3, 1:1 Langmuir fit [continued]. How it is done: as §1, §2

For experiment [7], the target named is T1, human serum albumin. The experiment is described as follows: SPR, HSA immobilised on the chip, pH 7.3, 1:1 Langmuir fit [continued]. How it is done:
as §1, §2

Experiment [8] addresses T4, Her2-Fc. The experiment is described as follows: ELISA on coated Her2-Fc; 0 h in mouse serum. How it is done: as §3, §4
Experiment [9] concerns the target T4, Her2-Fc. Description: ELISA on coated Her2-Fc; KD 24 h against KD 0 h, mouse serum. How it is done: as §3, §4
Experiment [10] deals with T4, Her2-Fc. Description: ELISA on coated Her2-Fc; after 24 h in human serum at 37 C. How it is done:
as §3, §4

In experiment [11] the target is T4, Her2-Fc. Description: ELISA on coated Her2-Fc; KD 24 h against KD 0 h, human serum. How it is done: as §3, §4
Experiment [12] concerns the target T4, Her2-Fc. Description: ELISA on coated Her2-Fc; 0 h in human serum. How it is done: as §3, §4
Experiment [13] deals with T4, Her2-Fc. Description: ELISA on coated Her2-Fc; after 24 h in mouse serum at 37 C. How it is done: as §3, §4

Where no end group is shown, it is not given here.

A word on the Kd: it is the equilibrium constant for the complex coming apart. Low readings indicate tighter binding, high ones weaker binding.

T1 sequence (P02768 25-609 limits assumed): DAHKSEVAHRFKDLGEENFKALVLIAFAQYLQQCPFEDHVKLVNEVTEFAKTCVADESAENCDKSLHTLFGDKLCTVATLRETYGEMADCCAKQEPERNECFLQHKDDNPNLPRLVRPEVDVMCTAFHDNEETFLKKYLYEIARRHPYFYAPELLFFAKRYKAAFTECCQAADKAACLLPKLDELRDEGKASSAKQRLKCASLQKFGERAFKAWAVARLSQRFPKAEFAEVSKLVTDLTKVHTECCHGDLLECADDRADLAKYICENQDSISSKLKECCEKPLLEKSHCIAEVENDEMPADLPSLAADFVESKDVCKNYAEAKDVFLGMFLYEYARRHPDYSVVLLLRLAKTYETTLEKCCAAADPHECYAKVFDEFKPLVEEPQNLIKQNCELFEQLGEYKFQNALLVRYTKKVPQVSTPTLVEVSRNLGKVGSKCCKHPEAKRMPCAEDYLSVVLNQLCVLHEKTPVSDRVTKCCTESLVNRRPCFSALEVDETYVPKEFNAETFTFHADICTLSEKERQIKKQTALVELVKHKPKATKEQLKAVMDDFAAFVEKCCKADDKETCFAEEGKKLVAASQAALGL

B1: Fusion proteins with albumin binding domain c42 (SEQ ID NO: 34) (designed binder, not shown: small tags and cut ends)
chain: LAEAKVLALKELDKYGISNYYKNLINNAKTIESVKALKDEIVAA
modifications: also: part of fusion protein, targeting moiety, linker, tag and order not given here
With B1, the Kd with human serum albumin [1] and with mouse serum albumin was at least 100 nM throughout.

B2: Fusion proteins with albumin binding domain c45 (SEQ ID NO: 35) (designed binder, not shown: small tags and cut ends)
chain: LAEAKVLALKELDKYGISNGYKNLINNAKTIEGVKALKDEIVAA
modifications: also: part of fusion protein, targeting moiety, linker, tag and order not given here
As for B2, the dissociation constant Kd in the experiment with human serum albumin [1] and in the experiment with mouse serum albumin was at least 100 nM in each case.

B3: Fusion proteins with albumin binding domain c50 (SEQ ID NO: 38) (designed binder, not shown: small tags and cut ends)
chain: LAEAKVLALKELDKYGISNYGKNLINNAKTIEGVEALKDAILAA
modifications: also: part of fusion protein, targeting moiety, linker, tag and order not given here
As for B3, the dissociation constant (Kd) in the experiment with human serum albumin [1] and with mouse serum albumin was at least 100 nM each time.

B4: Fusion proteins with albumin binding domain c49 (SEQ ID NO: 37) (designed binder, not shown: small tags and cut ends)
chain: LAEAKVLALKELDKYGISNDYKNLINNAKTIEGVEALKDAILAA
modifications: also: part of fusion protein, targeting moiety, linker, tag and order not given here
As to B4, the dissociation constant (Kd) in the experiment with human serum albumin [1] and with mouse serum albumin was at least 100 nM in each case.

B5: fusion protein 218692 (designed binder, not shown: small tags and cut ends)
chain (part 1 of 2): not shown
chain (part 2 of 2): LAEAKVLAIKELDKAGISNYYFNLINNAKTVEGVKDLKAQIVAA
notes: also called CID 218692
Take B5: the Kd with hFAP-Fc is 4 nM; with human serum albumin [2], 5 nM.

B6: fusion protein 218687 (designed binder, not shown: small tags and cut ends)
chain (part 1 of 2): not shown
chain (part 2 of 2): LAEAKVLALKELDKYGISNYYKNLINNAKTVEGVKALKEAIVAA
notes: also called CID 218687
For the molecule B6, the Kd with hFAP-Fc is 3.4 nM; with human serum albumin [2] it was 0.9 nM.

B7: fusion protein 218513 (designed binder, not shown: small tags and cut ends)
chain (part 1 of 2): not shown
chain (part 2 of 2): LAEAKVLALKELDKYGISNYYKNLINNAKTVEGVEALKEAILAA
notes: also called CID 218513
With B7, the Kd stood at 0.31 nM with Her2-Fc [3]; 0.43 nM with Her2-Fc [4]; 2.48 nM in experiment [5]; 3.3 nM in experiment [6]; 1.9 nM in the experiment with human serum albumin [7]; 0.25 nM with Her2-Fc [8]. The same molecule gave a Kd in the experiment with Her2-Fc [12] of 0.34 nM. In addition, the results for the “increase of KD vs target [fold]” value with Her2-Fc [9] and with Her2-Fc [11] were 1.23 fold and 1.27 fold, respectively. Also, the “max binding after 24 h [%]” value with Her2-Fc [10] worked out at 100%; with Her2-Fc [13] it was 106%.

B8: fusion protein 218703 (designed binder, not shown: small tags and cut ends)
chain (part 1 of 2): not shown
chain (part 2 of 2): LAEAKVLALKELDKYGISNYYKNLINNAKTIEGVKALKAQIVAA
notes: also called CID 218703
As for B8, the Kd came out at 5.8 nM with hFAP-Fc and 5.9 nM in the experiment with human serum albumin [2].

B9: fusion protein 218514 (designed binder, not shown: small tags and cut ends)
chain (part 1 of 2): not shown
chain (part 2 of 2): LAEAKVLALKELDKYGISNYYKNLINNAKTIEGVEALKDAILAA
notes: also called CID 218514
As to B9, the Kd was 0.25 nM with Her2-Fc [3]; 0.3 nM with Her2-Fc [4]; 2.19 nM in [5]; 3.3 nM in [6]; 1.8 nM with human serum albumin [7]; 0.21 nM with Her2-Fc [8]. In the experiment with Her2-Fc [12], the affinity, expressed as Kd, was 0.29 nM. Further, the “increase of KD vs target [fold]” value amounted to 1.19 fold in the experiment with Her2-Fc [9] and 1.06 fold with Her2-Fc [11]. Besides, the “max binding after 24 h [%]” value with Her2-Fc [10] came to 96.4%; with Her2-Fc [13] it was 100%.

B10: fusion protein 218708 (designed binder, not shown: small tags and cut ends)
chain (part 1 of 2): not shown
chain (part 2 of 2): LAEAKVLALKELDKYGISNYYKNLINNAKTVEGVKALKEAIVAALP
notes: also called CID 218708
For the molecule B10, the Kd with hFAP-Fc worked out at 4.4 nM; in the experiment with human serum albumin [2] it was 7.3 nM.

These data come from patent US20250388696A1 (NAVIGO PROTEINS, published 2025).
